Source: patent publication US20250263490A1 (VIB VZW, published 2025)
Each block holds one molecule with its values, some of them ahead of it.

Experiments:
[1] = biological target: recombinant human domain 1-3His6 of the cation-independent mannose-6-phosphate receptor (human) (UniProt P11717); test: BLI exp 2, dissoc pH 7.4, bivalent model
[2] = biological target: human cation-independent mannose-6-phosphate receptor, native, on cells (human) (UniProt P11717); test: flow cytometry on HepG2 cells, titration of the anti-CI-M6PR 2G11 antibody (Abcam ab2733) [lower graph]
[3] = biological target: recombinant human domain 1-3His6 of the cation-independent mannose-6-phosphate receptor (human) (UniProt P11717); test: BLI exp 2, dissoc pH 7, bivalent model
[4] = biological target: recombinant human domain 1-3His6 of the cation-independent mannose-6-phosphate receptor (human) (UniProt P11717); test: BLI exp 1, dissoc pH 7.4, bivalent model
[5] = biological target: human cation-independent mannose-6-phosphate receptor, native, on cells (human) (UniProt P11717); test: flow cytometry on HEK293T cells (sheet: HEK293 cell), titration of the anti-CI-M6PR 2G11 antibody (Abcam ab2733) [lower graph]
[6] = biological target: recombinant human domain 1-3His6 of the cation-independent mannose-6-phosphate receptor (human) (UniProt P11717); test: BLI exp 1, dissoc pH 6, bivalent model
[7] = biological target: recombinant human domain 1-3His6 of the cation-independent mannose-6-phosphate receptor (human) (UniProt P11717); test: BLI exp 1, dissoc pH 5, bivalent model
[8] = biological target: recombinant human domain 1-3His6 of the cation-independent mannose-6-phosphate receptor (human) (UniProt P11717); test: BLI exp 2, dissoc pH 6, bivalent model
[9] = biological target: recombinant human domain 1-3His6 of the cation-independent mannose-6-phosphate receptor (human) (UniProt P11717); test: BLI at pH 7.4, bivalent model
[10] = biological target: recombinant human domain 1-3His6 of the cation-independent mannose-6-phosphate receptor (human) (UniProt P11717); test: BLI exp 2, dissoc pH 5, bivalent model
[11] = biological target: recombinant human domain 1-3His6 of the cation-independent mannose-6-phosphate receptor (human) (UniProt P11717); test: BLI exp 1, dissoc pH 7, bivalent model
[12] = biological target: T1, recombinant human domain 1-3His6 of the cation-independent mannose-6-phosphate receptor (human, UniProt P11717 41-467); test: in-tandem competitive BLI, biotinylated hDom1-3His6 on SA sensors, periplasmic extract of E. coli (concentration not given)
T1 construct: Biotinylated (NHS-PEG4-biotin) for BLI; Glycosylated; also called hDom1-3His6; hCI-M6PRD1-D3
Protocol: FIGS. 50 & 51. […] In-tandem competitive BLI was performed on an Octet Red96 (FortéBio) instrument in kinetics buffer (1×PBS, 1 mg/ml bovine serum albumin, 0.02% Tween-20 and 0.05% sodium azide). Human CI-M6PR domain₁₋₃His₆ (0.5 mg/mL in 50 mM MES, 150 mM NaCl, pH 6.5) was incubated for 30 minutes at room temperature with EZ-Link™ NHS-PEG4-Biotin (1 mg, Thermo Fischer A39259) and NaHCO₃ (100 mM). Biotinylated human domain₁₋₃His₆ was purified using a Zeba spin desalting Column™ (7K MWCO, 2 mL, Thermo Fischer 89890) and immobilized on Streptavidin SA biosensors (Sartorius) to a signal of 0.5 nm. […] Between assays, biosensors were regenerated by three times 10 s exposure to regeneration buffer (10 mM glycine pH 3). Data were double reference-subtracted and aligned in Octet Data Analysis software v9.0 (FortéBio). Greyscale curves represent double reference-subtracted data.

[13] = biological target: T1, recombinant human domain 1-3His6 of the …; test: in-tandem competitive BLI, biotinylated hDom1-3His6 on SA sensors, purified VHH at 400 nM
Protocol: (§1) FIGS. 50 & 51. In-tandem competitive BLI of purified anti-CI-M6PR VHHs. In-tandem competitive BLI was performed on an Octet Red96 (FortéBio) instrument in kinetics buffer (1×PBS, 1 mg/ml bovine serum albumin, 0.02% Tween-20 and 0.05% sodium azide). Human CI-M6PR domain₁₋₃His₆ (0.5 mg/mL in 50 mM MES, 150 mM NaCl, pH 6.5) was incubated for 30 minutes at room temperature with EZ-Link™ NHS-PEG4-Biotin (1 mg, Thermo Fischer A39259) and NaHCO₃ (100 mM). Biotinylated human domain₁₋₃His₆ was purified using a Zeba spin desalting Column™ (7K MWCO, 2 mL, Thermo Fischer 89890) and immobilized on Streptavidin SA biosensors (Sartorius) to a signal of 0.5 nm. […] Between assays, biosensors were regenerated by three times 10 s exposure to regeneration buffer (10 mM glycine pH 3). Data were double reference-subtracted and aligned in Octet Data Analysis software v9.0 (FortéBio). Greyscale curves represent double reference-subtracted data.

[14] = biological target: T1, recombinant human domain 1-3His6 of the …; test: BLI, dissoc pH 6.5, mean of local fits
Protocol: (§2) FIGS. 58 & 59. […] BLI was performed on an Octet Red96 (FortéBio) instrument in kinetics buffer (0.2 M Na₂HPO₄, 0.1 M Na⁺ citrate, 0.01% bovine serum albumin, 0.002% Tween-20). Biotinylated human domain₁₋₃His₆ was immobilized on Streptavidin SA biosensors (Sartorius) to a signal of 0.6 nm. […] Between assays, biosensors were regenerated by three times 10 s exposure to regeneration buffer (10 mM glycine pH 3). The degree of association and dissociation was measured in δ nm over time (s).
(§3) After loading, the tips were incubated with VHHs serially diluted in pH 7.4 kinetic buffer during the association phase and dissociation was performed at pH 7.4, pH 6.5, pH 6.0, pH 5.5 and pH 5.0. All biosensor tips were then regenerated before analysis of the subsequent VHH. Table 13 summarizes the kinetic parameters retrieved after processing and curve fitting of the BLI measurements. When both association and dissociation were performed at pH 7.4, a global fit was performed according to the 1:1 binding model of which the resulting affinity constants (KD), association (kₒₙ) and dissociation rate constants (koff) are shown. For measurements with association at pH 7.4 and dissociation at pH 6.5, 6.0, 5.5 and 5.0, the depicted dissociation rate constants are an average of the parameters determined by local curve fitting of the dissociation of 200, 100 and 50 nM VHH.

[15] = biological target: T1, recombinant human domain 1-3His6 of the …; test: BLI, dissoc pH 6, mean of local fits
Protocol: as §2, §3

[16] = biological target: T1, recombinant human domain 1-3His6 of the …; test: BLI, dissoc pH 5.5, mean of local fits
Protocol: as §2, §3

[17] = biological target: T1, recombinant human domain 1-3His6 of the …; test: BLI, global 1:1 fit, pH 7.4
Protocol: as §2, §3

[18] = biological target: T1, recombinant human domain 1-3His6 of the …; test: BLI, dissoc pH 5, mean of local fits
Protocol: as §2, §3

[19] = biological target: T1, recombinant human domain 1-3His6 of the …; test: in-tandem competitive BLI, biotinylated hDom1-3His6 on SA sensors, purified VHH
[20] = biological target: T1, recombinant human domain 1-3His6 of the …; test: in-tandem competitive BLI, 400 nM
Protocol: as §1
FIG. 55. […] In-tandem competitive BLI was performed as described in FIG. 50.

Molecule: anti-CI-M6PR antibody (clone 2G11)
Kd [1]: 13.1 nM
koff [1]: 0.000794 s⁻¹
kon [1]: 60700 M⁻¹ s⁻¹
EC50 (read off the curve) [2]: 0.6 nM
koff [3]: 0.00103 s⁻¹
kon [3]: 31100 M⁻¹ s⁻¹
Kd [4]: 2760 nM
koff [4]: 0.000592 s⁻¹
kon [4]: 215 M⁻¹ s⁻¹
EC50 (read off the curve) [5]: 0.2 nM
Kd [6]: 2350 nM
koff [6]: 0.000479 s⁻¹
kon [6]: 204 M⁻¹ s⁻¹
Kd [7]: 1510 nM
koff [7]: 0.000363 s⁻¹
kon [7]: 241 M⁻¹ s⁻¹
koff [8]: 0.000534 s⁻¹
kon [8]: 42600 M⁻¹ s⁻¹
Kd [9]: 2760 nM
koff [9]: 0.000592 s⁻¹
kon [9]: 215 M⁻¹ s⁻¹
koff [10]: 0.000389 s⁻¹
kon [10]: 35900 M⁻¹ s⁻¹
Kd [11]: 4430 nM
koff [11]: 0.000712 s⁻¹
kon [11]: 161 M⁻¹ s⁻¹

B1: anti-CI-M6PR VHH 2H79 (VHH)
VHH: QVQLQESGGGQVQAGDSLGLSCAASGGAFSTYHMGWFRQAPGKQRELVAAITRGGSSSTKYVDSVKGRFTISRDNAKNTMYLQMNSLQPDDTAVYYCAASPQGKWNALVGGTPDYWGQGTQVTVSS
binding result [12]: binds

B2: anti-CI-M6PR VHH 1H37 (VHH)
VHH: QVQLQESGGGLVQPGGSLRLTCAPSGRTYSTYWMAWFRQAPGKEREIVARINWSDGSTFYTESVKGRFTISGDNAKNTVYLQMTNLKPEDTAVYYCLARTVVSLDDYWGQGTQVTVSS
binding result [13]: binds

B3: anti-CI-M6PR VHH 2H74 (VHH)
VHH: QVQLQESGGGLVQAGGSLRLTCAPSGRTYSTYWMAWFRQAPGKEREIVARINWSDGSTFYTESVKGRFTISGDNAKNTVYLQMTNLKPEDTAVYYCLARTVVSLDDYWGQGTQVTVSS
binding result [12]: binds

B5: anti-CI-M6PR VHH 1H52 (VHH)
VHH: QVQLQESGGGLVQPGGSLRLSCTASGFTWDSYVIGWFRQAPGKGREGVSCLDVDDGSIYYHDSAKGRFSISRDNAKNTVYLQMNSLKPEDTAVYYCAAVNRASMRFRRCLQVLRYDYWGQGTQVTVSS
notes: made in E. coli WK6, His-tag purified
koff [14]: 0.067 s⁻¹
koff [15]: 0.03 s⁻¹
koff [16]: 0.051 s⁻¹
Kd [17]: 31 nM
koff [17]: 0.032 s⁻¹
kon [17]: 1e+06 M⁻¹ s⁻¹
koff [18]: 0.2 s⁻¹

More lines, now with the values ahead:

binding result [13]: binds
B4: anti-CI-M6PR VHH 1H21 (VHH)
VHH: QVQLQESGGGLVQAGGSLRLSCVASGRTFSTLHMGWFHQAPGKERELVAAITRSGDTYYADFVKGRFTISRDNAKNTVYLQMISLKPEDTAVYYCAATGPGGWARLRAHEYDYWGQGTQVTVSS

binding result [19]: no binding (tested: 400 nM)
B6: 1H74 (VHH)
VHH: QVQLQESGGGLVQPGGSLRLACAASGFTLEDYSIGWFRQAPGKEREGVSCISSSDHSTYYADSVKGRFTISRDNAQNTVYLHMNSLKPEDTAVYYCAGRYSSLARIETNWHDYNYWGQGTQVTVSS
notes: also called anti-CI-M6PR VHH 1H74

binding result [20]: binds
B7: humanized VHH8 variant VHH8 h4 (VHH)
VHH: DVQLVESGGGLVQPGGSLRLSCEASGRTFNTYNWGWFRQAPGKEREFVAAIRWSSSKTSYADSVKGRFTISRDNSKNTVYLQMNSLRPEDTAVYYCAASIVDFTTNPSHFGSWGQGTLVTVSS
notes: made in E. coli

binding result [20]: binds
B8: humanized VHH8 variant VHH8 h5 (VHH)
VHH: DVQLVESGGGLVQAGGSLRLSCEASGRTFNTYNWGWFRQAPGKEREFVAAIRWSSSKTSYADSVKGRFTISRDNSKNTVYLQMNSLRPEDTAVYYCAASIVDFTTNPSHFGSWGQGTLVTVSS
notes: made in E. coli
